Measurements taken from the Immune Epitope Database (IEDB).
pIC50, pKd: −log10 of the molar value.

Tests used:
HLA-B*15:01 [1] = assay: IEDB peptide-MHC binding, purified MHC/competitive/fluorescence; filed as Kd, often an IC50 or EC50 that approximates it; ≥ and ≤ were set here for values at or beyond the usual limits of such assays
HLA-A*26:01 [2] = assay: as above
HLA-B*27:03 = assay: as above
HLA-B*51:01 = assay: as above
HLA-B*57:01 = assay: as above
HLA-B*18:01 = assay: as above
HLA-A*02:01 [3] = assay: as above
HLA-B*39:01 = assay: as above
HLA-B*46:01 = assay: as above
HLA-B*15:17 = assay: as above
HLA-A*69:01 [4] = assay: as above
HLA-A*24:03 = assay: IEDB peptide-MHC binding, purified MHC/direct/fluorescence; filed as Kd, often an IC50 or EC50 that approximates it; ≥ and ≤ were set here for values at or beyond the usual limits of such assays
HLA-A*03:01 [5] = assay: as above
HLA-A*02:19 = assay: as above
HLA-A*68:02 = assay: as above
HLA-A*02:12 = assay: as above
HLA-A*02:16 = assay: as above
HLA-A*01:01 [6] = assay: as above
HLA-A*23:01 = assay: as above
HLA-A*02:03 = assay: as above
HLA-B*15:01 [7] = assay: IEDB peptide-MHC binding, purified MHC/competitive/fluorescence; ≥ and ≤ were set here for values at or beyond the usual limits of such assays
HLA-B*15:01 [8] = assay: IEDB peptide-MHC binding, purified MHC/direct/fluorescence; filed as Kd, often an IC50 or EC50 that approximates it; ≥ and ≤ were set here for values at or beyond the usual limits of such assays
HLA-A*02:11 = assay: as above
HLA-B*08:01 [9] = assay: IEDB peptide-MHC binding, purified MHC/competitive/fluorescence; ≥ and ≤ were set here for values at or beyond the usual limits of such assays
HLA-A*02:01 [10] = assay: as above; details: source organism: Zaire ebolavirus
HLA-B*07:02 [11] = assay: as above
HLA-A*24:02 = assay: as above
HLA-A*01:01 [12] = assay: IEDB peptide-MHC binding, purified MHC/competitive/fluorescence; filed as Kd, often an IC50 or EC50 that approximates it; ≥ and ≤ were set here for values at or beyond the usual limits of such assays
HLA-A*03:01 [13] = assay: as above; details: source organism: Escherichia coli O157:H7 str. Sakai
HLA-A*29:02 = assay: IEDB peptide-MHC binding, purified MHC/direct/fluorescence; filed as Kd, often an IC50 or EC50 that approximates it; ≥ and ≤ were set here for values at or beyond the usual limits of such assays; details: source organism: Zaire ebolavirus
HLA-A*11:01 = assay: as above
HLA-B*58:01 = assay: as above; details: source organism: Vibrio vulnificus YJ016
HLA-A*26:01 [14] = assay: as above; details: source organism: Vibrio vulnificus YJ016
HLA-A*30:01 = assay: as above; details: source organism: Vibrio vulnificus
HLA-B*07:02 [15] = assay: as above; details: source organism: Vibrio vulnificus YJ016
HLA-B*40:01 = assay: as above; details: source organism: Vibrio vulnificus YJ016
HLA-B*08:01 [16] = assay: as above; details: source organism: Vibrio vulnificus YJ016
HLA-A*02:01 [17] = assay: as above; details: source organism: Vibrio vulnificus YJ016
HLA-A*69:01 [18] = assay: as above; details: source organism: Vibrio vulnificus YJ016
[19] = source organism: Influenza A virus (A/Memphis/1/1978(H1N1))
[20] = source organism: Influenza A virus H3N2
[21] = source organism: Sudan ebolavirus
[22] = source organism: Reston ebolavirus
[23] = source organism: Zaire ebolavirus
[24] = source organism: Vaccinia virus
[25] = source organism: Bacillus anthracis str. A0488
[26] = source organism: Vaccinia virus Copenhagen
[27] = source organism: Escherichia coli
[28] = source organism: Rickettsia sibirica 246
[29] = source organism: Vibrio vulnificus YJ016
[30] = source organism: Vibrio vulnificus

In the case of AVDADDSHF, the pKd (HLA-B*15:01 [1]; [19]) was no more than 4.70, the pKd (HLA-A*26:01 [2]; [19]) was no more than 4.70 and the pKd (HLA-B*27:03; [19]) was no more than 4.70. It also gave a pKd (HLA-B*51:01; [19]) of no more than 4.70, a pKd (HLA-B*57:01; [19]) of no more than 4.70 and a pKd (HLA-B*18:01; [19]) of no more than 4.70. For the same sequence, the pKd (HLA-A*02:01 [3]; [19]) was no more than 4.70, the pKd (HLA-B*39:01; [19]) was no more than 4.70 and the pKd (HLA-B*46:01; [19]) was no more than 4.70. It also gave a pKd (HLA-B*15:17; [19]) of no more than 4.70, a pKd (HLA-A*69:01 [4]; [19]) of no more than 4.70 and a pKd (HLA-A*24:03; [20]) of no more than 4.70. The pKd (HLA-A*03:01 [5]; [20]) was no more than 4.70, the pKd (HLA-A*02:19; [20]) was no more than 4.70 and the pKd (HLA-A*68:02; [20]) was no more than 4.70. It also gave a pKd (HLA-A*02:12; [20]) of no more than 4.70, a pKd (HLA-A*02:16; [20]) of no more than 4.70 and a pKd (HLA-A*01:01 [6]; source organism: Influenza A virus (A/New York/140/1999(H3N2))) of no more than 4.70. The pKd (HLA-A*23:01; [20]) was no more than 4.70 and the pKd (HLA-A*02:03; [20]) was no more than 4.70.

GVPPKVVSY gave a pIC50 (HLA-B*15:01 [7]; [21]) of 4.24, a pKd (HLA-A*26:01 [2]; [22]) of no more than 4.70 and a pKd (HLA-B*27:03; [22]) of no more than 4.70. For the same sequence, the pKd (HLA-B*51:01; [22]) was no more than 4.70, the pKd (HLA-B*57:01; [22]) was no more than 4.70 and the pKd (HLA-B*18:01; [22]) was no more than 4.70. The pKd (HLA-A*02:01 [3]; [22]) was no more than 4.70, the pKd (HLA-B*39:01; [22]) was no more than 4.70 and the pKd (HLA-B*46:01; [22]) was no more than 4.70. It also gave a pKd (HLA-A*69:01 [4]; [22]) of no more than 4.70, a pKd (HLA-A*24:03; [22]) of no more than 4.70 and a pKd (HLA-A*03:01 [5]; [22]) of no more than 4.70. It also gave a pKd (HLA-B*15:01 [8]; source organism: Reston ebolavirus - Reston) of 5.59, a pKd (HLA-A*02:19; [22]) of no more than 4.70 and a pKd (HLA-A*02:11; [22]) of no more than 4.70. The pKd (HLA-A*68:02; [22]) was no more than 4.70, the pKd (HLA-A*02:12; [22]) was no more than 4.70 and the pKd (HLA-A*02:16; [22]) was no more than 4.70. It also gave a pKd (HLA-A*23:01; [22]) of no more than 4.70 and a pKd (HLA-A*02:03; [22]) of no more than 4.70.

Sequence ERLAKLTEA has a pIC50 (HLA-B*08:01 [9]; [23]) of no more than 3.97 and a pIC50 (HLA-A*02:01 [10]) of no more than 3.76.

Work on FLLIHQGMH yielded a pIC50 (HLA-B*15:01 [7]; [23]) of no more than 3.64, a pIC50 (HLA-B*08:01 [9]; [23]) of no more than 3.64 and a pIC50 (HLA-A*02:01 [10]) of 5.02.

With FLRYLLFGI the pIC50 (HLA-B*07:02 [11]; [24]) was no more than 3.00, the pIC50 (HLA-B*08:01 [9]; [24]) was no more than 3.71 and the pIC50 (HLA-A*24:02; [24]) was 4.78.

For TLDSEDGLY, the pKd (HLA-A*01:01 [12]; [25]) was 8.80.

With GSQYVSLAY the pKd (HLA-A*03:01 [13]) was 5.35 and the pKd (HLA-A*01:01 [12]; source organism: Escherichia coli O157:H7 str. Sakai) was 7.49.

LSDAIFDDL showed a pKd (HLA-B*15:01 [1]; [23]) of no more than 4.70, a pKd (HLA-A*26:01 [2]; [23]) of no more than 4.70 and a pKd (HLA-B*27:03; [23]) of no more than 4.70. It also gave a pKd (HLA-B*51:01; [23]) of no more than 4.70, a pKd (HLA-B*57:01; [23]) of no more than 4.70 and a pKd (HLA-B*18:01; [23]) of no more than 4.70. For the same sequence, the pKd (HLA-A*02:01 [3]; [23]) was no more than 4.70, the pKd (HLA-B*39:01; [23]) was no more than 4.70 and the pKd (HLA-B*46:01; [23]) was no more than 4.70. For the same sequence, the pKd (HLA-B*15:17; [23]) was no more than 4.70, the pKd (HLA-A*69:01 [4]; [23]) was no more than 4.70 and the pKd (HLA-A*24:03; [23]) was no more than 4.70. The pKd (HLA-A*03:01 [5]; [23]) was no more than 4.70, the pKd (HLA-A*29:02) was no more than 4.70 and the pKd (HLA-A*02:19; [23]) was no more than 4.70. The pKd (HLA-A*02:11; [23]) was no more than 4.70, the pKd (HLA-A*68:02; [23]) was no more than 4.70 and the pKd (HLA-A*02:12; [23]) was no more than 4.70. The pKd (HLA-A*02:16; [23]) was no more than 4.70, the pKd (HLA-A*01:01 [6]; source organism: Sudan ebolavirus - Maleo (1979)) was 5.73 and the pKd (HLA-A*23:01; [23]) was no more than 4.70. For the same sequence, the pKd (HLA-A*02:03; [23]) was no more than 4.70.

For YANCSSISI, the pIC50 (HLA-B*15:01 [7]; [26]) was 4.61, the pIC50 (HLA-B*07:02 [11]; [26]) was no more than 3.76 and the pIC50 (HLA-B*08:01 [9]; [26]) was no more than 2.97. The pIC50 (HLA-A*24:02; [26]) was 5.88.

In the case of AAPLMQSLY, the pKd (HLA-A*26:01 [2]; [27]) was 5.88 and the pKd (HLA-A*01:01 [12]; [27]) was no more than 4.70.

GFPRCRYVH showed a pIC50 (HLA-B*07:02 [11]; [21]) of no more than 4.08, a pIC50 (HLA-B*08:01 [9]; [23]) of 4.91 and a pIC50 (HLA-A*24:02; [21]) of 5.91.

EPPLVRHAC gave a pIC50 (HLA-B*07:02 [11]; [24]) of no more than 3.79 and a pIC50 (HLA-B*08:01 [9]; [24]) of no more than 3.28.

FLLQRWGGT showed a pIC50 (HLA-B*08:01 [9]; [23]) of 5.20 and a pIC50 (HLA-A*02:01 [10]) of 5.08.

YRNKPSIAT was tested, and the pIC50 (HLA-B*08:01 [9]; [24]) was no more than 3.89.

SVANIDRIK showed a pKd (HLA-A*26:01 [2]; [28]) of no more than 4.70, a pKd (HLA-B*27:03; [28]) of no more than 4.70 and a pKd (HLA-B*51:01; [28]) of no more than 4.70. The pKd (HLA-B*57:01; [28]) was no more than 4.70, the pKd (HLA-B*18:01; [28]) was no more than 4.70 and the pKd (HLA-A*02:01 [3]; [28]) was no more than 4.70. It also gave a pKd (HLA-B*39:01; [28]) of no more than 4.70, a pKd (HLA-B*46:01; [28]) of no more than 4.70 and a pKd (HLA-B*15:17; [28]) of no more than 4.70. It also gave a pKd (HLA-A*69:01 [4]; [28]) of no more than 4.70, a pKd (HLA-A*24:03; [28]) of no more than 4.70 and a pKd (HLA-A*03:01 [5]; [28]) of no more than 4.70. The pKd (HLA-A*02:19; [28]) was no more than 4.70, the pKd (HLA-A*02:11; [28]) was no more than 4.70 and the pKd (HLA-A*68:02; [28]) was no more than 4.70. For the same sequence, the pKd (HLA-A*02:12; [28]) was no more than 4.70, the pKd (HLA-A*02:16; [28]) was no more than 4.70 and the pKd (HLA-A*23:01; [28]) was no more than 4.70. It also gave a pKd (HLA-A*02:03; [28]) of no more than 4.70 and a pKd (HLA-A*11:01; [28]) of 8.22.

DAYGFHNYK showed a pKd (HLA-B*58:01) of no more than 4.70, a pKd (HLA-A*24:03; [29]) of no more than 4.70 and a pKd (HLA-A*03:01 [5]; [30]) of 6.67. It also gave a pKd (HLA-B*15:01 [8]; [29]) of no more than 4.70, a pKd (HLA-A*26:01 [14]) of no more than 4.70 and a pKd (HLA-A*30:01) of 5.96. The pKd (HLA-B*07:02 [15]) was no more than 4.70, the pKd (HLA-B*40:01) was no more than 4.70 and the pKd (HLA-B*08:01 [16]) was no more than 4.70. It also gave a pKd (HLA-A*02:01 [17]) of no more than 4.70, a pKd (HLA-A*01:01 [6]; [29]) of no more than 4.70 and a pKd (HLA-A*69:01 [18]) of no more than 4.70. The pKd (HLA-A*11:01; [30]) was 6.89.

LLDNSMFTY showed a pKd (HLA-A*01:01 [12]; [25]) of 8.42.
